Laboratory results published in patent US20090298178A1, “GROWTH FACTORS FOR PRODUCTION OF DEFINITIVE ENDODERM” (priority 2008, published 2009).

Key:
[1] = system: hES cells (CyT49; passage 35); test: Further differentiation to pancreatic endoderm and endocrine cells, real-time PCR at 10 days (Example 4); assay type: cell-based, human; conditions: definitive endoderm produced using Wnt3a at 50 or 75 ng/ml or GXV at 10 nM, FIG. 7
Method: Human ES cell cultures were maintained and differentiated substantially as described above in Example 1, and further differentiated to foregut endoderm (stage 2) and then onto pancreatic endoderm and pancreatic endocrine cells (stages 3 and 4). After 48 hours of differentiation to definitive endoderm (stage 1) the cells were briefly washed in PBS+/+ and then further differentiated in RPMI supplemented with 0.2% FBS, Insulin-Transferrin-Selenium (1:1000), Glutamax, penicillin/streptomycin, and 25 ng/mL KGF (R&D Systems) for 3 days. On the first day of stage 2, the culture also received TGF-beta inhibitor No. 4 (3-(6-Methylpyridin-2-yl)-4-(4-quinolyl)-1-phenylthiocarbamoyl-1H-pyrazole) at 2.5 uM (EMD Bioscience). After three days in stage 2 the cells were then differentiated for one day in DMEM with B27 supplement (1:100) containing all-trans retinoic acid (RA) at 0.2 uM and KAAD-cyclopamine at 0.25 uM. Following the single day of retinoid exposure, the cells were cultured in DMEM with B27 (1:100) containing noggin at 40 ng/ml. […]
However, in this instance, the stage 4 noggin treatment lasted for 4 days, as compared to 3 days in Example 2, and replicate samples were taken for real-time PCR analysis at a total of 10 days of differentiation, as compared to 9 days in Example 2.

[2] = system: hES cells (CyT49; passage 35); test: Differentiation of hES cells to definitive endoderm with activin A plus Wnt3a or GSK3 inhibitors, real-time quantitative PCR at 48 hours (Example 4); assay type: cell-based, human; conditions: with 100 ng/mL activin A; Wnt3a 25, 50 or 75 ng/mL; GSK3 inhibitor No.15 at 10 nM; FIG. 6A-B
Method: Undifferentiated hES cells (CyT49; passage 35) were maintained substantially as described in Example 1 above. Ten hES cell culture plates were then differentiated in RPMI (Mediatech) supplemented with Glutamax, penicillin/streptomycin, and varying concentrations of defined FBS (HyClone). FBS concentrations were 0% for the first 24 h and 0.2% for the second 24 h. Additionally, 0.1% BSA (Invitrogen/Gibco) was added on the first day only. All plates received 100 ng/mL activin A for both days. […] Replicate samples were collected from each culture condition at 48 hours after differentiation commenced and analyzed for relative gene expression using real-time quantitative PCR.

B1: Wnt3a: Wnt protein (R&D Systems) activating the Wnt signaling pathway (protein, UniProt P56704 19-352, looked up)
Protein Wnt-3a: SYPIWWSLAVGPQYSSLGSQPILCASIPGLVPKQLRFCRNYVEIMPSVAEGIKIGIQECQHQFRGRRWNCTTVHDSLAIFGPVLDKATRESAFVHAIASAGVAFAVTRSCAEGTAAICGCSSRHQGSPGKGWKWGGCSEDIEFGGMVSREFADARENRPDARSAMNRHNNEAGRQAIASHMHLKCKCHGLSGSCEVKTCWWSQPDFRAIGDFLKDKYDSASEMVVEKHRESRGWVETLRPRYTYFKVPTERDLVYYEASPNFCEPNPETGSFGTRDRTCNVSSHGIDGCDLLCCGRGHNARAERRREKCRCVFHWCCYVSCQECTRVYDVHTCK
With B1 the “abundance of pancreatic endoderm and endocrine cell types (PDX1, PTF1A, NKX6-1 and NKX2-2 induction)” value [1] was “much greater abundance” and the “expression levels of SOX17 and FOXA2 at 48 hours of differentiation as compared to the other GSK inhibitors” value [2] was “substantially higher”.
